How the values were obtained:
[1] = target: T1, huFLT3-T227 stably expressed on Ramos cells (human, UniProt P36888 27-993); assay: FACS on cells
T1 construct: whole, on cells; also called FLT3 WT
Protocol: (§1) For FLT3, Ramos cells were engineered to stably express either the huFLT3-T227 or huFLT3-M227 variant at >200,000 receptors per cell. Parental, huFLT3-T227, and huFLT3-M227 Ramos cell lines were stained with differing levels of CellTrace Violet Cell Proliferation Kit (ThermoFisher, cat. #C34557) to barcode each cell line. Barcoded Ramos cell lines were fixed with paraformaldehyde and incubated with myc-labeled scFv periplasmic extracts and a secondary anti-myc PE-conjugated monoclonal antibody. Appropriate positive and negative controls were used. Stained cells were analyzed by flow cytometry (CytoFLEX, Beckman Coulter, Inc.) and binding was assessed by change in PE mean fluorescence intensity (MFI) of the barcoded cell populations.

[2] = target: T2, huFLT3-M227 stably expressed on Ramos cells (human, UniProt P36888 27-993); assay: FACS on cells
T2 construct: whole, on cells; also called FLT3 Mutant
Protocol: as §1

Binder	FACS geometric mean fold change over Jurkat parental [1] [fold]	FACS geometric mean fold change over Jurkat parental [2] [fold]
Polypeptide No. 256 (scFv, V domains shown, scFv) VH: QVQLVQSGAEVKKPGASVKVSCKASGYTFATYYLHWVRQAPGQGLEWMGMINPSGGSTIYAQKFQGRVTMTRDTSTSTVYMELSSLRSEDTAVYYCARSSGYDFFDYWGQGTLVTVSS VL: DIQMTQSPSSLSASVGDRVTITCRASHDINNYLNWYQQKPGKAPKLLIYDASNLETGVPSRFSGSGSGTDFTLTISSLQPEDFATYYCQQADSFPLTFGGGTKVEIKR	> 30	> 30
Polypeptide No. 270 (scFv, V domains shown, scFv) VH: QVQLVQSGAEVKKPGASVKVSCKASGGTFSSYYMHWVRQAPGQGLEWMGWISAYNGNTNYAQKLQGRVTMTRDTSTSTVYMELSSLRSEDTAVYYCAKDMGYYYDSSGGFDYWGQGTLVTVSS VL: DIQMTQSPSSLSASVGDRVTITCRASQSISSYLNWYQQKPGKAPKLLIYDASNLETGVPSRFSGSGSGTDFTLTISSLQPEDFATYYCQQTYTTPLTFGQGTKVEIKR	10 to 30	10 to 30
Polypeptide No. 262 (scFv, V domains shown, scFv) VH: QVQLVQSGAEVKKPGASVKVSCKASGFTFSDYGYYMHWVRQAPGQGLEWMGWMDPSSGHTGYAQRFQGRVTMTRDTSTSTVYMELSSLRSEDTAVYYCAKDIGWGAFDIWGQGTTVTVSS VL: EIVMTQSPATLSVSPGERATLSCRASQRVGNTYLAWYQQKPGQAPRLLIYDVSARASGIPARFSGSGSGTEFTLTISSLQSEDFAVYYCQQYLSPPLTFGGGTKVEIKR	10 to 30	10 to 30
Polypeptide No. 269 (scFv, V domains shown, scFv) VH: QVQLVQSGAEVKKPGASVKVSCKASGGSFSSYALHWVRQAPGQGLEWMGLINPSGGRTSYAQKFQGRVTMTRDTSTSTVYMELSSLRSEDTAVYYCARDEGYATFDYWGQGTLVTVSS VL: EIVMTQSPATLSVSPGERATLSCRASQSISSSYLAWYQQKPGQAPRLLIYDVSARATGIPARFSGSGSGTEFTLTISSLQSEDFAVYYCQQYYSTPLTFGPGTKVDIKR	10 to 30	10 to 30
Polypeptide No. 278 (scFv, V domains shown, scFv) VH: QVQLVQSGAEVKKPGASVKVSCKASGYTFTSYYMHWVRQAPGQGLEWMGIINPSSGSTTYAQKFQGRVTMTRDTSTSTVYMELSSLRSEDTAVYYCARSVGATSAFDIWGQGTMVTVSS VL: not shown	> 30	> 30
Polypeptide No. 260 (scFv, V domains shown, scFv) VH: QVQLVQSGAEVKKPGASVKVSCKASGYTFTNYYVHWVRQAPGQGLEWMGMINPSGGSTNYAQKFQGRVTMTRDTSTSTVYMELSSLRSEDTAVYYCARVSGWKRGWFDPWGQGTLVTVSS VL: DIQMTQSPSSLSASVGDRVTITCRSSQSISTYLNWYQQKPGKAPKLLIYGASNLQSGVPSRFSGSGSGTDFTLTISSLQPEDFATYYCQQVISYPITFGGGTKVEIKR	> 30	> 30
Polypeptide No. 273 (scFv, V domains shown, scFv) VH: QVQLVQSGAEVKKPGSSVKVSCKASGDTFNSYAVNWVRQAPGQGLEWMGGIIPSFGTPTYAWKFQGRVTITADESTSTAYMELSSLRSEDTAVYYCASVSYGSFDYWGQGTLVTVSS VL: EIVMTQSPATLSVSPGERATLSCRASQSVSSSSLAWYQQKPGQAPRLLIYDASTRASGIPARFSGSGSGTEFTLTISSLQSEDFAVYYCQQYNRLPYTFGQGTKLEIKR	10 to 30	10 to 30
Polypeptide No. 265 (scFv, V domains shown, scFv) VH: QVQLVQSGAEVKKPGSSVKVSCKASGHTFTSDYMHWVRQAPGQGLEWMGRIIPIFGTADYAQKFQGRVTITADESTSTAYMELSSLRSEDTAVYYCARDDSSGIFDYWGQGTLVTVSS VL: EIVMTQSPATLSVSPGERATLSCRASQSVNSEHLAWYQQKPGQAPRLLIYDTSSRATGIPARFSGSGSGTEFTLTISSLQSEDFAVYYCQQYGSSPVTFGQGTKVEIKR	10 to 30	10 to 30
Polypeptide No. 284 (scFv, V domains shown, scFv) VH: QVQLVQSGAEVKKPGASVKVSCKASGYTFTSYYMHWVRQAPGQGLEWMGVINPSGGSTTYAQKFQGRVTMTRDTSTSTVYMELSSLRSEDTAVYYCARVPGVSPGDYGMDVWGQGTTVTVSS VL: DIQMTQSPSSLSASVGDRVTITCRASHNISTWLAWYQQKPGKAPKLLIYAASSLQSGVPSRFSGSGSGTDFTLTISSLQPEDFATYYCQQSYSTPPTFGQGTRLEIKR	> 30	> 30

More lines, now with the values ahead:

FACS geometric mean fold change over Jurkat parental [1] [fold]	FACS geometric mean fold change over Jurkat parental [2] [fold]	Binder
10 to 30	10 to 30	Polypeptide No. 290 (scFv, V domains shown, scFv) VH: QVQLVQSGAEVKKPGASVKVSCKASGGTFTSYYMHWVRQAPGQGLEWMGWISAYNGKTDYAQKFQGRVTMTRDTSTSTVYMELSSLRSEDTAVYYCARDQGYYYDSSGAFDIWGQGTLVTVSS VL: DIQMTQSPSSLSASVGDRVTITCRASQSISSYLNWYQQKPGKAPKLLIYDASNLETGVPSRFSGSGSGTDFTLTISSLQPEDFATYYCQQTYSAPPTFGQGTKLEIKR
> 30	> 30	Polypeptide No. 283 (scFv, V domains shown, scFv) VH: QVQLVQSGAEVKKPGASVKVSCKASGYTFTSYYMDWVRQAPGQGLEWMGRINPSSGSTTYVQKFQGRVTMTRDTSTSTVYMELSSLRSEDTAVYYCARTPSGSYSDFDYWGQGTLVTVSS VL: not shown
10 to 30	10 to 30	Polypeptide No. 259 (scFv, V domains shown, scFv) VH: QVQLVQSGAEVKKPGSSVKVSCKASGYTFTSSEINWVRQAPGQGLEWMGGIHPMFGTTNYAQKFQGRVTITADESTSTAYMELSSLRSEDTAVYYCARARLMVYAPSDYWGQGTLVTVSS VL: not shown
> 30	> 30	Polypeptide No. 280 (scFv, V domains shown, scFv) VH: QVQLVQSGAEVKKPGASVKVSCKASGYTFTRYYMHWVRQAPGQGLEWMGIINPSGGSTSYAQKFQGRVTMTRDTSTSTVYMELSSLRSEDTAVYYCARGETRSYAPYGMDVWGQGTTVTVSS VL: DIQMTQSPSSLSASVGDRVTITCQASQDISNYLNWYQQKPGKAPKLLIYQASNKDTGVPSRFSGSGSGTDFTLTISSLQPEDFATYYCQQSYSTPPTFGQGTKLEIKR
10 to 30	2 to 10	Polypeptide No. 254 (scFv, V domains shown, scFv) VH: QVQLVQSGAEVKKPGASVKVSCKASGYTFTSHYMHWVRQAPGQGLEWMGWISPYNGNTNYAQKLQGRVTMTRDTSTSTVYMELSSLRSEDTAVYYCARGESNSGWINFDYWGQGTLVTVSS VL: EIVMTQSPATLSVSPGERATLSCRASQSVSSSSLAWYQQKPGQAPRLLIYDTSTRATGIPARFSGSGSGTEFTLTISSLQSEDFAVYYCQQYGTSPITFGQGTRLEIKR
10 to 30	10 to 30	Polypeptide No. 257 (scFv, V domains shown, scFv) VH: QVQLVQSGAEVKKPGASVKVSCKASGYTFTNYFMHWVRQAPGQGLEWMGIINPSGGSTSYAQKFQGRVTMTRDTSTSTVYMELSSLRSEDTAVYYCARAHTVYYYGMDVWGQGTMVTVSS VL: DIQMTQSPSSLSASVGDRVTITCRASQSISSWLAWYQQKPGKAPKLLIYAASTLQSGVPSRFSGSGSGTDFTLTISSLQPEDFATYYCQQSYSTPWTFGQGTKLEIKR
